T1: human G-CSF receptor (human, UniProt Q99062 25-836)
T1 sequence (looked up): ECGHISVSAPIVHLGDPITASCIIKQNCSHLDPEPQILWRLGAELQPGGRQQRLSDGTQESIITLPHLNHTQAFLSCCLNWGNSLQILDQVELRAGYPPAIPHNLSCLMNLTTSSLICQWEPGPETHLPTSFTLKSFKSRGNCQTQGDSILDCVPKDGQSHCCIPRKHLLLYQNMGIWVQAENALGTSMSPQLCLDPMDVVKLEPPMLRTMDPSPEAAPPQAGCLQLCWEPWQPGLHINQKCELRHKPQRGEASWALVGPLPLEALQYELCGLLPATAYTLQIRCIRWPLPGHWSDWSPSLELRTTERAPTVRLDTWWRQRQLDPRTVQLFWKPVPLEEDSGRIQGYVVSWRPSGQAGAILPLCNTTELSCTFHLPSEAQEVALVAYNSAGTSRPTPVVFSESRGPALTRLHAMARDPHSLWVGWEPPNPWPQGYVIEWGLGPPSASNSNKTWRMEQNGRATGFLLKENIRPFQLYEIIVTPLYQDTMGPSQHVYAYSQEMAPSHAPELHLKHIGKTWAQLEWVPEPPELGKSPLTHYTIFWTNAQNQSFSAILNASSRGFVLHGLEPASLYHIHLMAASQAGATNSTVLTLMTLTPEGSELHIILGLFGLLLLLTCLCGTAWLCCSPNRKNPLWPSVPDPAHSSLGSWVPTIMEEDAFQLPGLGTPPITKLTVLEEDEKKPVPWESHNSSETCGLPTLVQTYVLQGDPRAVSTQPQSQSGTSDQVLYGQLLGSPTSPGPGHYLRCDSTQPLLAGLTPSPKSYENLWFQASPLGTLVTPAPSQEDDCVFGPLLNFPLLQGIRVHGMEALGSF

B1: SPA-PEG 5000-conjugated hG-CSF K16R K34R K40R Q70K Q90K T105K (ligand)
chain: TPLGPASSLPQSFLLRCLEQVRKIQGDGAALQERLCATYRLCHPEELVLLGHSLGIPWAPLSSCPSQALKLAGCLSQLHSGLFLYQGLLKALEGISPELGPTLDKLQLDVADFATTIWQQMEELGMAPALQPTQGAMPAFASAFQRRAGGVLVASHLQSFLEVSYRVLRHLAQP
modifications: SPA-PEG 5000 on the available PEGylation sites
B2: SPA-PEG 5000-conjugated hG-CSF K16R K34R K40R Q70K Q120K T133K (ligand)
chain: B1 chain with K90Q, K105T, Q120K, T133K
modifications: SPA-PEG 5000 on the available PEGylation sites
B3: SPA-PEG 5000-conjugated hG-CSF K16R K34R K40R Q70K Q120K (ligand)
chain: B1 chain with K90Q, K105T, Q120K
modifications: SPA-PEG 5000 on the available PEGylation sites
B4: SPA-PEG 5000-conjugated hG-CSF K16R K34R K40R Q70K Q90K Q120K (ligand)
chain: B1 chain with K105T, Q120K
modifications: SPA-PEG 5000 on the available PEGylation sites
B5: SPA-PEG 5000-conjugated hG-CSF K16R K34R K40R Q90K Q120K T133K (ligand)
chain: B1 chain with K70Q, K105T, Q120K, T133K
modifications: SPA-PEG 5000 on the available PEGylation sites
B6: non-conjugated hG-CSF (Neupogen) (ligand)
chain: B1 chain with R16K, R34K, R40K, K70Q, K90Q, K105T
B7: SPA-PEG 12000-conjugated hG-CSF K16R K34R K40R (ligand)
chain: B1 chain with K70Q, K90Q, K105T
modifications: SPA-PEG 12000; mainly 2 and 3 PEG groups attached
B8: SPA-PEG 5000-conjugated hG-CSF K16R K34R K40R (ligand)
chain: B1 chain with K70Q, K90Q, K105T
modifications: SPA-PEG 5000 on the available PEGylation sites
B9: SPA-PEG 20000-conjugated hG-CSF K16R K34R K40R (ligand)
chain: B1 chain with K70Q, K90Q, K105T
modifications: SPA-PEG 20000

Numbering of substitutions follows the chain as printed. Names and notes keep the numbering of the source.

The target of the first experiment is T1, human G-CSF receptor. Kind of experiment: cell-based or functional assay.
Consider B1, for which the “EC50 (% of hG-CSF) conjugated to SPA-PEG 5000” value is 2 % of hG-CSF.
The same measure, in the same setting: to B2 belongs 5 % of hG-CSF; to B3, 15 % of hG-CSF.
On the same count and under the same terms, under B4 stands 10 % of hG-CSF.
Same read-out and setting: under B5 stands 5 % of hG-CSF.

The target in another experiment is T1, human G-CSF receptor. Description: cell-based or functional assay. This is another data set of the same source.
Turning to B6, the “EC50, BaF3/hGCSF-R/pfos-lux luciferase assay” value came out at 30 pM.
For B7, the “in vitro EC50 (% of non-conjugated hG-CSF (Neupogen))” value was 10 % of non-conjugated hG-CSF (Neupogen).
As for B8, the “in vitro EC50 (% of non-conjugated hG-CSF (Neupogen))” value is 35 % of non-conjugated hG-CSF (Neupogen).
The same measure, in the same setting: to B9 belongs 1 % of non-conjugated hG-CSF (Neupogen).

These data come from EP2133098A1 (Maxygen Holdings Ltd, dated 2009).
